Source: patent publication US20220372160A1

Biological target: recombinant mouse CD39 (mouse) (UniProt P55772)
Experiment: BLI, Duha59 amine-coupled to AR2G biosensor, recombinant mouse CD39 as analyte, 1:1 model

recombinant mouse CD39 (mouse), sequence (P55772 38-478 limits assumed): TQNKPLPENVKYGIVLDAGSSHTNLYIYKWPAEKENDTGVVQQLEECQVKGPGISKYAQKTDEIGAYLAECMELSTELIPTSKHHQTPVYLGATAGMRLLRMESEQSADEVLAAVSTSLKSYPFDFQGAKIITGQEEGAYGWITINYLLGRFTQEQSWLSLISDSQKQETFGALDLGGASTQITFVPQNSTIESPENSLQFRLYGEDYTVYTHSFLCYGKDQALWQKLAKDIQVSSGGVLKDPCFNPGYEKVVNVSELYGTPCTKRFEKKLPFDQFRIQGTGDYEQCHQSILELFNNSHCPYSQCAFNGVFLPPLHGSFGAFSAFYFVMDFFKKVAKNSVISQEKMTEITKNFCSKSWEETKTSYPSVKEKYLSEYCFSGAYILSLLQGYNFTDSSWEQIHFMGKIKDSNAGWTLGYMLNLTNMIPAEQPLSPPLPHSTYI

Kd: 1.09 nM
Substance: rat anti-mouse CD39 Duha59 clone (antibody)
